According to patent US6319893A, “Raising blood sugar level in hypoglycemic mammals by administering inhibitors of dipeptidyl peptidase IV” (Probiodrug, priority 1998, dated 2001):

Experiments:
serum DP IV = target: T1, serum DP IV (Homo sapiens, UniProt P27487); assay: MALDI-TOF mass spectra of a glucagon-serum mixture, serum DP IV-catalysed glucagon cleavage; assay type: biochemical; conditions: no inhibitor, FIG. 2 A
T1 construct: from tissue; host or cells: serum
From the text: Inhibition of Serum DP IV-catalysed Glucagon Cleavage by the DP IV Inhibitor Isoleticyl-thiazolidine

DP IV = DP IV (Homo sapiens, UniProt P27487); assay: MALDI-TOF mass spectra of glucagon solution incubated with DP IV; assay type: biochemical; conditions: 0.14 mmol glucagon solution, 40 mmol TRIS/HCL pH=7.6, 40 nmol DP IV; FIG. 1
DP IV, sequence (P27487 whole entry): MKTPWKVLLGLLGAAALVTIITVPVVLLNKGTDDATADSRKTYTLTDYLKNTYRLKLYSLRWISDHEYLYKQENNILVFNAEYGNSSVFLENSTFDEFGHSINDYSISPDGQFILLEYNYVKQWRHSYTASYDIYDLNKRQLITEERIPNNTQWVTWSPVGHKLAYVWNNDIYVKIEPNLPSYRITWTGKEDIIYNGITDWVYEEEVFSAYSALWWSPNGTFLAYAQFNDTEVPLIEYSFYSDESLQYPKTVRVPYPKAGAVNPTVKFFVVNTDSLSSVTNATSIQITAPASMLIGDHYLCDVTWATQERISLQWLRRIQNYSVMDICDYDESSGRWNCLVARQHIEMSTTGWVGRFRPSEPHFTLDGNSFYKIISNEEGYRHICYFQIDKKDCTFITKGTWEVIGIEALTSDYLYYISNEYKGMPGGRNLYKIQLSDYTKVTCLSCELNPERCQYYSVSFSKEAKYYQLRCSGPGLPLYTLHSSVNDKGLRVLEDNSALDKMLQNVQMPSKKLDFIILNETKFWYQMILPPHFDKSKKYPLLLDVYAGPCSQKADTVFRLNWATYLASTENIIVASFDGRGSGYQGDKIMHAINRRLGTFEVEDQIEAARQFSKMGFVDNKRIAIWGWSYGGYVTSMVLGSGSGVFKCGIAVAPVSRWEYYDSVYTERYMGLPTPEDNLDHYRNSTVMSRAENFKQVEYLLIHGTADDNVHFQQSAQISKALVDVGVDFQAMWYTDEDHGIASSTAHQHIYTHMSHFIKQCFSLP

T1 sequence (P27487 39-766 limits assumed): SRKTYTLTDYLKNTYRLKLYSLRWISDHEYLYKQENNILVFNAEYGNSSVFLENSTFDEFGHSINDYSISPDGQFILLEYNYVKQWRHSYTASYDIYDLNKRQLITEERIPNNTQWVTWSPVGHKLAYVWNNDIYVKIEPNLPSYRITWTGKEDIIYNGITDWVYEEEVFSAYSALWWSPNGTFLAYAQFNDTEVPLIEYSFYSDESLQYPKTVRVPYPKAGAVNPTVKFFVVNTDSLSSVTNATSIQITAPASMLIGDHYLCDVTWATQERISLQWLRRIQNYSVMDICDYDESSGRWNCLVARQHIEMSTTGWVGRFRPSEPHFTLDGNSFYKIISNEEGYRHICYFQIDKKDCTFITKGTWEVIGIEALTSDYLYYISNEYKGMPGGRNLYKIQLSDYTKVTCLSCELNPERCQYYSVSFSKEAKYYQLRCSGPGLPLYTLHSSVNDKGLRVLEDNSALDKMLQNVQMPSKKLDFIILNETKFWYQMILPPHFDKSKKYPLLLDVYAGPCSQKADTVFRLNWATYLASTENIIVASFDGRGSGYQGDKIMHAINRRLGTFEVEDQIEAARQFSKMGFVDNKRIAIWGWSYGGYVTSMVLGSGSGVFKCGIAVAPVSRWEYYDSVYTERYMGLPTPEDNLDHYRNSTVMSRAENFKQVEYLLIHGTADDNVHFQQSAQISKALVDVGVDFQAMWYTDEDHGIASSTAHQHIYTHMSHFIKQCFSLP

glucagon
hydrolysis of glucagon by serum DP IV (MALDI-TOF) (serum DP IV): serum-DP IV hydrolyses glucagoni
cleavage of glucagon by DP IV (MALDI-TOF) (DP IV): removal of the dipeptides His-Ser and Gln-Gly occurs sequentially depending upon the incubation time
